Data reported in the supplement of paper PMC11865577.

Legend:
Experiment in all cases: pull-down binding Z-score (relative to library population); higher = stronger binding
Conditions in all cases: RNA library: Library-2
[1] = tested on: TO-N3-2 (biotin conjugate)
Outline: (§1)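 Binding is given as a Z-score against the library mean and standard deviation, calculated after removing the beads-only signal and averaging barcoded replicate probes without their highest and lowest values. Cy5- or Cy3-end-labelled RNA library (1 μg) was heat-folded in phosphate/NaCl/KCl buffer and incubated 60 min at 25 °C with streptavidin beads bearing 100 pmol of biotin-conjugated small molecule. After three washes, RNA eluted in hot SDS was hybridised to a DNA barcode microarray for 20 h at 55.5 °C.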

[2] = tested on: TO-3-N3 (biotin conjugate)
Outline: as §1

[3] = tested on: TO-3-N3-2 (biotin conjugate)
Outline: as §1

TO-N3 (biotin conjugate) = tested on: TO-N3 (biotin conjugate)
Outline: as §1

Sequence	pull-down binding Z-score [1]	pull-down binding Z-score [2]	pull-down binding Z-score [3]	pull-down binding Z-score (TO-N3 (biotin conjugate))
GCAGAGACAGAAGAAACAGCAAACUGUGACUCUUCUUCCUGC	0.0897	-0.211	-0.128	-0.156
GCAGCAAUAUGC [IAV_invivo_PA_3_Motif_2+IAV_invivo_PA_3_Motif_2]	-0.111	0.588	-0.292	0.548
GCAGCCAAACUAAUGGUUGU	0.312	0.609	0.228	0.574
GCAGGAGCCUUAAAUAAGGCUACUAACAAUGC	-0.521	0.214	-0.0703	0.0366
GCAGUAAGUCUGAUACUUACCUG [U1snRNP5ss-9]	0.892	0.85	0.129	0.947
GCAGUAUAAUUAAUAACUAAUUACUGU [SARS-CoV-2-Conserved-Structured-36_Interval-120-237_Motif_1]	-1.31	-0.577	-0.428	-1.03
GCAGUGGCUAACUAACAUCUUUGGCACUGU	-0.175	-0.125	0.0264	-0.244
GCAGUUAAAAUGUUUGAUGCUUACGUUAAUACGUUUUCAUCAACUUUUAACGU	-1.09	-1.09	-0.145	-1.37
GCAUACAGUCGCUACAGGAUUGGCAACUAUAAAUUAAACACAGACCAUUCCAGUAGCAGUGACAAUAUUGC [SHAPE_invivo_SARS-CoV-2_Motif_513]	0.259	-0.0312	0.365	0.116
GCAUGAUGUUUCAUCUGC	-0.496	1.18	0.0512	0.951
GCAUUGAUUUAGAUGAGUGGAGUAUGGCUACAUACUACUUAUUUGAUGAGUCUGGUGAGUUUAAAUUGGCUUCACAUAUGU	0.256	-0.215	-0.04	0.0261
GCCACAAAGGC [IAV_invivo_PA_3_Motif_6+IAV_invivo_PA_3_Motif_6]	-0.964	-0.745	-0.685	-1.13
GCCACGUAUAAACCAAAUACCUGGUGUAUACGUUGU	-0.78	0.576	-0.377	0.17
GCCACUAGUCUCUAGUCAGUGUGUUAAUCUUACAACCAGAACUCAAUUACCCCCUGCAUACACUAAUUCUUUCACACGUGGU [SHAPE_invivo_SARS-CoV-2_Motif_403]	0.688	-0.0417	0.101	0.388
GCCACUUGCGAAUUUUGUGGC	-0.997	0.0442	-0.0945	-0.312
GCCAGCACAUGGUCCAGCCAAAAACAUGGAGUAUGAUGCUGUUGC [IAV_invivo_PB1_2_Motif_34+IAV_invivo_PB1_2_Motif_34]	1.43	-0.602	-0.346	-0.304
GCCAGUUGGAGGC [IAV_invivo_PB1_2_Motif_15+IAV_invivo_PB1_2_Motif_15]	0.153	-0.0995	-0.201	-0.233
GCCAUUGCCGGU [IAV_invivo_HA_4_Motif_15+IAV_invivo_HA_4_Motif_15]	-0.0811	-0.443	-0.49	-0.593

Sequence	pull-down binding Z-score [1]	pull-down binding Z-score [2]	pull-down binding Z-score [3]	pull-down binding Z-score (TO-N3 (biotin conjugate))
GCCAUUUGUCAUGAUGGAAAAGCACACUUUCCUCGUGAAGGUGUCUUUGUUUCAAAUGGC	-0.949	-1.16	-0.592	-1.39
GCCCCAUUCCUUGAUCGGCUUCGCCGAGAUCAGAAAUCCCUAAGAGGAAGGGGC [IAV_invivo_NS1_NEP_8_Motif_3+IAV_invivo_NS1_NEP_8_Motif_3]	0.181	-0.845	-0.223	-0.849
GCCCUGGAAUGAUGAUGGGC [IAV_invivo_PB1_2_Motif_20+IAV_invivo_PB1_2_Motif_20]	0.65	0.0132	0.012	0.138
GCCCUUAUAGGGC [IAV_invivo_NA_6_Motif_5+IAV_invivo_NA_6_Motif_5]	-1.22	0.164	-0.38	-0.247
GCCGAAUACCAUAAUGAAUCUGGC [SHAPE_invitro_SARS-CoV-2_Motif_29]	-0.0249	-0.597	-0.529	-0.479
GCCGCCACUAGAGGAGCUACUGUAGUAAUUGGAACAAGCAAAUUCUAUGGUGGUUGGC	1.24	0.361	0.675	0.89
GCCGGAUCAGACCGAGUGAUGGUAUCACCACUGGC [IAV_invivo_PB2_1_Motif_5+IAV_invivo_PB2_1_Motif_5]	0.505	-0.361	-0.146	-0.143
GCCGGUAGCACACCUUGUAAUGGUGUUGAAGGU [SHAPE_invitro_SARS-CoV-2_Motif_416]	0.332	0.478	-0.509	0.452
GCCUGUGUAAAUGGU [IAV_invivo_NA_6_Motif_8+IAV_invivo_NA_6_Motif_8]	-0.434	-0.344	-0.297	-0.471
GCCUUGAAGCCCCUUUUCUCUAUCUUUAUGCUUUAGUCUACUUCUUGCAGAGUAUAAACUUUGUAAGAAUAAUAAUGAGGC	0.166	0.275	0.362	0.232
GCGCAGCCAGAAACUGGCAGCGC [mismatch-AA]	-0.354	-0.468	-0.365	-0.528
GCGCAGCCAGAAACUGGCCGCGC [mismatch-AC]	-1	-0.43	-0.295	-0.746
GCGCAGCCAGAAACUGGCGGCGC [mismatch-AG]	-0.228	0.114	-0.168	0.0293
GCGCCGCCAGAAACUGGCAGCGC [mismatch-CA]	-1.05	0.381	-0.524	0.225
GCGCCGCCAGAAACUGGCCGCGC [mismatch-CC]	-0.608	-0.796	-0.533	-1.08
GCGCCGCCAGAAACUGGCUGCGC [mismatch-CU]	-0.671	0.308	-0.0148	0.00381
GCGCGGCCAGAAACUGGCAGCGC [mismatch-GA]	-1.21	-0.773	-0.798	-1.33
